Data on one substance can be found in US20050266242A1.

This assay concerns the target seed (assembled NM protein, preformed fibers used to seed fiber elongation in Example 10) (Saccharomyces cerevisiae) (UniProt P05453). The assay can be described thus: seeded fiber elongation, sedimentation and wavelength shift assays, Lineweaver-Burk plot.

Usually Km stands for the concentration of substrate that gives half-maximal velocity.

seed (assembled NM protein, preformed fibers used to seed fiber elongation in Example 10) (Saccharomyces cerevisiae), sequence (P05453 1-253): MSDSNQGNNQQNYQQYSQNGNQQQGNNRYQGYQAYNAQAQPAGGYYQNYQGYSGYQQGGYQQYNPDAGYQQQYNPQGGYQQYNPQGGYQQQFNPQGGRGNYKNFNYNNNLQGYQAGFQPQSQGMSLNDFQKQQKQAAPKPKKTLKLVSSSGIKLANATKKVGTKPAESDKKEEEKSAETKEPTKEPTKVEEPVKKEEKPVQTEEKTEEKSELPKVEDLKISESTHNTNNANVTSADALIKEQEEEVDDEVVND

As for “NM^T158C-acrylodan (from UniProt P05453 1-253) (other; other documents disagree on this pair)”, the Km was 0.12 µM, the Vmax (maximal rate of conformational conversion) worked out at 0.001 µmol/s, the kconf (rate constant of conformational conversion) was found to be 0.005 s⁻¹ and the kconf/Km (conformational conversion efficiency) turned out to be 42000 M⁻¹ s⁻¹.
